Experimental data taken from article PMC3049928.

Substrate: Nc1ncnc2c1ncn2[C@@H]1O[C@H](COP(=O)(O)O)[C@@H](OP(=O)(O)O)[C@H]1O
Assay: purified protein
Format: biochemical, Homo sapiens
Conditions: varied pNPS, no added alcohol, 50 mM phosphate pH 6.2, 37 °C

B1: SULT1A1 (human phenol sulfotransferase, human sulfotransferase 1A1) (Homo sapiens) (protein)
chain: MELIQDTSRPPLEYVKGVPLIKYFAEALGPLQSFQARPDDLLISTYPKSGTTWVSQILDMIYQGGDLEKCHRAPIFMRVPFLEFKAPGIPSGMETLKDTPAPRLLKTHLPLALLPQTLLDQKVKVVYVARNAKDVAVSYYHFYHMAKVHPEPGTWDSFLEKFMVGEVSYGSWYQHVQEWWELSRTHPVLYLFYEDMKENPKREIQKILEFVGRSLPEETVDFVVQHTSFKEMKKNPMTNYTTVPQEFMDHSISPFMRKGMAGDWKTTFTVAQNERFDADYAEKMAGCSLSFRSEL
B1 gave a Km of 34 ± 6 µM, a kcat of 0.000633 ± 0.000117 s⁻¹ and a kcat/Km of 18.3 ± 3.33 M⁻¹ s⁻¹.
